In the supplement of paper PMC10567573:

B1: ESRRA (parent)
chain: LGVAQRSLPLQDELAFAEDLVLDE

Variants of: B1
Assay: protein stability index of a GFP-peptide fusion (GPS, HEK-293T) (PSI 1-6); higher = more stable
Conditions: c terminus: a fixed tail appended
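Further: lentivirally expressed fusions sorted by FACS into six bins by GFP to DsRed ratio, PSI derived from sequencing read proportions per bin multiplied by bin number.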

Protein stability index, by site and new letter:
D12: I 1.74 | R 1.95 | S 2.01 | K 2.98 | Y 1.8 | N 3.19 | W 2.04 | P 4.59 | H 2.17 | V 2.22 | T 1.86 | G 3.59 | E 2.3 | M 2.37
E24: Q 3.67 | N 3.24 | H 2.57 | D 4.07 | V 2.21 | L 2.3 | Y 2.53 | G 4.13 | C 1.66 | W 2.21 | T 3.11 | K 4.02 | P 3.92
A4: E 3.45 | L 2.42 | M 2.58 | C 2.02 | P 3.1 | H 2.21 | K 2.58 | T 2.43 | F 2.23 | Q 3.33 | S 2.81 | W 2.3 | R 1.86 | D 2.84 | N 2.94 | V 2.39 | I 1.59
E13: C 3.38 | A 1.75 | W 3.24 | D 2.5 | Y 3.5 | G 4.81 | N 5.15 | P 4.71 | T 3.92 | I 2.42 | Q 2.99 | H 4.44 | V 2.64
D23: N 1.88 | R 2.51 | W 2.1 | Q 1.74 | G 1.72 | V 1.88 | K 2.41 | L 2.64 | C 2.38 | A 3.11 | Y 2.3 | F 5.28 | S 2.58 | T 3.21 | H 2.34
Q11: E 4.87 | I 3.35 | C 3.94 | H 3.21 | G 3.38 | V 3.14 | W 2.71 | P 4.66 | A 3.11 | Y 3.12 | K 2 | T 4.57 | D 4.92 | N 4.12 | S 4.37 | F 4 | L 3.3
S7: G 2.79 | T 3.34 | L 2.58 | E 2.57 | M 2.84 | I 2.98 | P 3.14 | H 2.29 | R 2.52 | D 3.25 | K 3.13 | W 1.78
L20: K 4.98 | I 3.18 | F 4.98 | S 4.4 | R 4.19 | G 5.51 | A 4.42 | T 5.16 | N 4.85 | E 3.12 | W 4.82
Q5: R 1.74 | W 2.07 | D 2.77 | Y 1.97 | T 2.39 | L 2.07 | C 1.76 | I 2.17 | P 3.39 | G 2.26 | A 2.51 | F 1.87 | V 2.19 | K 2.39 | E 3.16
A15: M 3.49 | P 5.28 | N 3.85 | I 4.41 | C 3.93 | T 3.26 | W 3.22 | K 2.3 | F 4.42 | R 1.82 | D 4.77 | G 4.74 | L 3.81 | H 4.39 | Y 4.29 | S 3.68
P9: I 2.85 | D 3.17 | Q 4.66 | A 4.37 | L 3.89 | Y 3.66 | M 3.53 | V 4.05 | S 3.49 | R 3.95 | F 3.54 | C 4.38 | N 4.18
A17: L 4.3 | D 4.99 | N 5.35 | T 3.8 | W 2.02 | Q 5.4 | F 4.19 | I 3.96 | R 4.83 | M 4.88 | P 5.19 | G 4.76 | H 4.95
G2: L 2.21 | Q 2.98 | D 3.02 | R 1.93 | H 2.78 | N 3.08 | S 2.63 | K 1.98 | E 3.17 | W 1.79 | C 2.69 | Y 1.89 | T 2.91 | I 1.89
L22: W 3.85 | D 5.13 | E 5.71 | Y 3.98 | C 3.76 | Q 3.81 | I 3.55 | M 4.2 | N 4.69 | K 2.74 | S 5.02 | R 2.89 | H 3.52
L8: R 2.02 | I 3.03 | P 3.71 | G 3.74 | Y 1.86 | Q 3.72 | V 3.53 | K 4.38 | S 2.83 | E 5 | C 3.2 | A 3.17 | T 3.24 | H 2.88 | N 2.91
E18: Y 3.48 | D 5.17 | C 4.09 | G 5 | V 3.65 | M 3.84 | N 4.9 | T 4.81 | W 3.11 | Q 4.34 | H 4.6 | A 4.25 | S 4.4 | K 4.58 | F 3.3 | I 2.56
D19: V 1.76 | E 2.34 | W 2.23 | F 2.56 | G 2.05 | R 2.01 | K 2.49 | H 1.83 | Q 3.58 | A 1.89 | P 4.89 | L 2.16 | Y 2.03 | M 2.43 | I 1.94 | N 1.76
V3: I 2.21 | A 2.92 | R 2.58 | P 2.73 | H 2.76 | F 2.31 | D 3.69 | M 2.12 | Y 2.16 | Q 2.84 | K 2.39 | N 3.1 | E 4.36 | C 2.86 | L 2.61 | G 3.15
L14: E 5.5 | G 5.46 | Q 5.27 | A 5.24 | Y 4.81 | N 5.42 | S 5.66 | P 5.38 | D 5.68 | I 5.15 | H 5.43 | M 2.13 | V 4.92
L10: Y 5.12 | Q 5.45 | G 5.43 | N 5.12 | F 4.97 | C 5.41 | W 4.84 | A 5.58 | E 4.36 | P 4.33 | V 4.64 | S 5.19 | R 5.44
R6: H 2.55 | K 2.92 | S 2.98 | F 2.26 | C 1.84 | D 4.23 | I 2.37 | W 2.17 | T 3.23 | E 3.27 | Y 2.16 | Q 3.81 | M 2.35
V21: N 5.49 | Y 4.61 | A 5.06 | R 4.83 | E 5.31 | Q 5.24 | I 1.56 | S 4.43 | D 5.76 | K 5.28 | W 4.03 | T 5.39
F16: W 2.45 | M 2.81 | A 3.16 | N 3.63 | L 2.96 | T 5.04 | V 4.09 | R 3.03 | C 3.86 | I 2.34 | G 4.64 | Q 2.68
L1: W 1.74 | I 2.2 | G 3.19 | R 2.18 | P 3.63 | N 2.58 | T 3.5 | C 2.57 | H 2.98 | Y 2.79 | A 2.99 | M 2.63
